# Results: article PMC3876041, “Screening of Peptide Ligands for Pyrroloquinoline Quinone Glucose Dehydrogenase Using Antagonistic Template-Based Biopanning” (International Journal of Molecular Sciences, 2013)
# No end group written: not given here.
# Tests used:
# [1] = molecular target: T1, DEE-His (His-tagged V453D-Q454E-K455E GDH-B) (Acinetobacter calcoaceticus, UniProt P13650, K455E/Q454E/V453D); assay: SPR (BIAcore X) binding of immobilized synthesized peptides, DEE-His as analyte; details: peptide on CM5 chip (amine coupling), analyte 5 nM to 90 μM in 10 mM MOPS–NaOH pH 7.0, less than 20 RU at any analyte concentration = not binding, read-out: Kd against DEE-His
# T1 construct: 6-His (C); made in house
# T1 sequence (P13650 25-478 V453D/Q454E/K455E): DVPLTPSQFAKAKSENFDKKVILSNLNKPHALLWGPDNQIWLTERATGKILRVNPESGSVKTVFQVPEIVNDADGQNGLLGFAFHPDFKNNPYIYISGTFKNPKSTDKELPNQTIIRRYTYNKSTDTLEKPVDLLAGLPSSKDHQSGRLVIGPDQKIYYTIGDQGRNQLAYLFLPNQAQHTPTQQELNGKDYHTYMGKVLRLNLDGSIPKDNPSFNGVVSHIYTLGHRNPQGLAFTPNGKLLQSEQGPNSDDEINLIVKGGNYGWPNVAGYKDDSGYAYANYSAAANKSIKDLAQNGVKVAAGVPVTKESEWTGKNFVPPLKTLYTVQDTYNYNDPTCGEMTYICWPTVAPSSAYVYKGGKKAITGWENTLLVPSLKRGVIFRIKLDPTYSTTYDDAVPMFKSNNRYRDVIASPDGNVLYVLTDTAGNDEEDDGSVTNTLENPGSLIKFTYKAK
# Text: (§1) The purity was greater than 95%.
# [2] = molecular target: T2, HI (Y367H-N452I GDH-B) (Acinetobacter calcoaceticus, UniProt P13650, N452I/Y367H); assay: SPR (BIAcore X) binding of immobilized synthesized peptides, HI as analyte; details: peptide on CM5 chip (amine coupling), analyte 5 nM to 90 μM in 10 mM MOPS–NaOH pH 7.0, less than 20 RU at any analyte concentration = not binding, read-out: Kd against HI
# T2 construct: made in house; host or cells: Escherichia coli PP2418 / pTrc99A
# T2 sequence (P13650 25-478 Y367H/N452I): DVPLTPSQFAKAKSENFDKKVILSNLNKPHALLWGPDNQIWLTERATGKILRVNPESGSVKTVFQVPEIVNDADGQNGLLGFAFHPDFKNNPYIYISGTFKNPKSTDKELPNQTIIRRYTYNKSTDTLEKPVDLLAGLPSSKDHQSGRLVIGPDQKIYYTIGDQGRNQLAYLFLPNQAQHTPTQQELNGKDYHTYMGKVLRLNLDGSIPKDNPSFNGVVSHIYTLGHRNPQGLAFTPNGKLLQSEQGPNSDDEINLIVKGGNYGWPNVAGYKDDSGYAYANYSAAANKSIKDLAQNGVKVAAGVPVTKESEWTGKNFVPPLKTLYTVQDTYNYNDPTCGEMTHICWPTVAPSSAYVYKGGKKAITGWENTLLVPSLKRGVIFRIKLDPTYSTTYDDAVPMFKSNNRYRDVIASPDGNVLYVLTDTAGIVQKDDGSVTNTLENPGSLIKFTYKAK
# Text: as §1
# [3] = molecular target: T3, wild-type water-soluble pyrroloquinoline quinone (PQQ) glucose dehydrogenase (GDH-B) (UniProt P13650 25-478); assay: SPR; BIAcore X; peptide immobilised on CM5 chip by amine coupling (320-2130 RU); analytes GDH-B, DEE-His or HI, five concentrations (5 nM to 90 uM) in 10 mM MOPS-NaOH pH 7.0, 10 uL/min to plateau; Kd from plateau RU against concentration (Scatchard); less than 20 RU at any concentration judged as not binding; details: both partners purified
# T3 construct: water-soluble PQQ-dependent glucose dehydrogenase (GDH-B); structural gene in pTrc99A; Produced as apo-form in E. coli; PQQ and Ca2+ are added for activity assays; also called wild-type GDH-B; W.T; source: E. coli PP2418 (pTrc99A), purified as previously described (cation exchange chromatography)
# T3 sequence (looked up): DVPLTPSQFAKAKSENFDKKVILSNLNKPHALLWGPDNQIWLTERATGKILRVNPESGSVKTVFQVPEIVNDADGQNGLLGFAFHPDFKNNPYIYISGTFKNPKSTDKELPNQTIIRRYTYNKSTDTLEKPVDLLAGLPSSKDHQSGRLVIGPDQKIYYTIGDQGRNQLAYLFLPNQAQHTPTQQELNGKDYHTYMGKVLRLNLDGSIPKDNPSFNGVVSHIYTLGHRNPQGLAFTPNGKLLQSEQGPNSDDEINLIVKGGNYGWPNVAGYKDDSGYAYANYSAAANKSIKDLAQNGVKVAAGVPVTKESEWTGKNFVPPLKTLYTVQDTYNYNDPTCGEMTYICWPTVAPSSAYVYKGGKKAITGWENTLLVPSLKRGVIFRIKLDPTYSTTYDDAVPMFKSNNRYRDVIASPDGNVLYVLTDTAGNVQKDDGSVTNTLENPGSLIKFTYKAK
# [4] = molecular target: T4, Y367H-N452I GDH-B (HI) (UniProt P13650 25-478, Y367H | N452I); assay: SPR; details: both partners purified
# T4 construct: also called antagonistic template; source: E. coli PP2418 (pTrc99A), soluble, purified (Resource S cation exchange, Superdex 200 size exclusion chromatography)
# T4 sequence: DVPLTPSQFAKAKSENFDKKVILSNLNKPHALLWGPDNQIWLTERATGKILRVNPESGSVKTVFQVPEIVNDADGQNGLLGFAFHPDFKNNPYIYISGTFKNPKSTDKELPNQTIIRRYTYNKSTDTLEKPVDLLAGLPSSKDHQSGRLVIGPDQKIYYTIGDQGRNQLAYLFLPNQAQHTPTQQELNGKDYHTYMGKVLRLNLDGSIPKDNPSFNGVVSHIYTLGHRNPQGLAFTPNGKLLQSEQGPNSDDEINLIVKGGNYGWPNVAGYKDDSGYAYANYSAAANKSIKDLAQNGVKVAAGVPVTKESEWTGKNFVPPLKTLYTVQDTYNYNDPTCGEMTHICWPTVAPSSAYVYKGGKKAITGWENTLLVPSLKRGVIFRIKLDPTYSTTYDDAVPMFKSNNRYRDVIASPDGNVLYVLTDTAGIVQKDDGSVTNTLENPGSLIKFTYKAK
# [5] = molecular target: T3, wild-type water-soluble …; assay: enzyme inhibition assay; residual activity of 0.7 nM GDH-B for 50 mM D-glucose after 1 h incubation with various concentrations of peptide; DCIP/PMS, 10 mM MOPS-NaOH pH 7.0, PQQ, CaCl2; non-competitive dominant mixed inhibition; details: both partners purified
# [6] = decrease vs wild-type GDH-B, ref [36]; cited from earlier work
# Text: We, and other research groups, have been engaged in constructing of variety of mutant GDH-Bs in order to develop an ideal enzyme for glucose monitoring. For example, we have reported the Asn452Thr GDH-B mutant, showing approximately 50% lower activity for lactose and maltose than the wild-type GDH-B [36].
# [7] = Kinetic parameters of GDH-B and mutant enzymes; type: biochemical
# Experimental: GDH-B activity was measured using 0.06 mM 2,6-dichlorophenolindophenol (DCIP) and 0.6 mM phenazine methosulfate (PMS) following 30 min pre-incubation in 10 mM MOPS–NaOH buffer (pH 7.0) containing 1 μM PQQ and 1 mM CaCl2 at room temperature (25 °C). The enzyme activity was determined by measuring the decrease in absorbance of DCIP at 600 nm. For the inhibition assay, the residual activity of 0.7 nM GDH-B for 50 mM D-glucose was measured following 1 h incubation with various concentrations of each peptide. GDH-B activity in the absence of peptide was defined as 100%.
# [8] = DCIP/PMS assay, 10 mM MOPS–NaOH pH 7.0, 1 μM PQQ, 1 mM CaCl2, 25 °C
molecule,measurement,setting,value
ELITNSETTQWF [HI3-2],Kd,[1],> 90 µM
LGDSSNSQVSLN [DEE4–5],Kd,[2],> 90 µM
same,Kd,[1],> 90 µM
NSTHHHHFATIW [DEE4–10],Kd,[2],> 90 µM
same,Kd,[1],> 90 µM
SDLSPIQSLSAI [DEE4–6],Kd,[1],> 90 µM
"LGDSSNSQVSLN (12-mer selected from the Ph.D.-12 phage display peptide library; Immobilised on a CM5 chip by amine coupling in the SPR; also called DEE3-4; source: synthetic peptide, bought: Sigma Aldrich Japan) [DEE4–5 synthesized 12-mer peptide]",Kd,[3],13 µM
"SDLSPIQSLSAI (12-mer selected from the Ph.D.-12 phage display peptide library; Immobilised on a CM5 chip by amine coupling in the SPR; also called DEE4–9; source: synthetic peptide, bought: Sigma Aldrich Japan) [DEE4–6 synthesized 12-mer peptide]",Kd,[3],2.5 µM
same,Kd,[4],230 µM
"NSTHHHHFATIW (12-mer selected from the Ph.D.-12 phage display peptide library; Immobilised on a CM5 chip by amine coupling in the SPR; also called HI4–6; source: synthetic peptide, bought: Sigma Aldrich Japan) [DEE4–10 synthesized 12-mer peptide]",Kd,[3],0.7 µM
same,Ki,[5],7.4 µM
"ELITNSETTQWF (12-mer selected from the Ph.D.-12 phage display peptide library; Immobilised on a CM5 chip by amine coupling in the SPR; source: synthetic peptide, bought: Sigma Aldrich Japan) [HI3-2 synthesized 12-mer peptide]",Kd,[3],2.5 µM
same,Kd,[4],88 µM
"Asn452Thr GDH-B mutant: previously reported Asn452Thr GDH-B mutant, ref [36] (protein, UniProt P13650 25-478, looked up, variant N452T) Quinoprotein glucose …: DVPLTPSQFAKAKSENFDKKVILSNLNKPHALLWGPDNQIWLTERATGKILRVNPESGSVKTVFQVPEIVNDADGQNGLLGFAFHPDFKNNPYIYISGTFKNPKSTDKELPNQTIIRRYTYNKSTDTLEKPVDLLAGLPSSKDHQSGRLVIGPDQKIYYTIGDQGRNQLAYLFLPNQAQHTPTQQELNGKDYHTYMGKVLRLNLDGSIPKDNPSFNGVVSHIYTLGHRNPQGLAFTPNGKLLQSEQGPNSDDEINLIVKGGNYGWPNVAGYKDDSGYAYANYSAAANKSIKDLAQNGVKVAAGVPVTKESEWTGKNFVPPLKTLYTVQDTYNYNDPTCGEMTYICWPTVAPSSAYVYKGGKKAITGWENTLLVPSLKRGVIFRIKLDPTYSTTYDDAVPMFKSNNRYRDVIASPDGNVLYVLTDTAGTVQKDDGSVTNTLENPGSLIKFTYKAK",lower activity for lactose than the wild-type,[6],approximately 50%
same,lower activity for maltose than the wild-type,[6],approximately 50%
"HI: GDH-B mutant Y367H-N452I, antagonistic template (protein) DVPLTPSQFAKAKSENFDKKVILSNLNKPHALLWGPDNQIWLTERATGKILRVNPESGSVKTVFQVPEIVNDADGQNGLLGFAFHPDFKNNPYIYISGTFKNPKSTDKELPNQTIIRRYTYNKSTDTLEKPVDLLAGLPSSKDHQSGRLVIGPDQKIYYTIGDQGRNQLAYLFLPNQAQHTPTQQELNGKDYHTYMGKVLRLNLDGSIPKDNPSFNGVVSHIYTLGHRNPQGLAFTPNGKLLQSEQGPNSDDEINLIVKGGNYGWPNVAGYKDDSGYAYANYSAAANKSIKDLAQNGVKVAAGVPVTKESEWTGKNFVPPLKTLYTVQDTYNYNDPTCGEMTHICWPTVAPSSAYVYKGGKKAITGWENTLLVPSLKRGVIFRIKLDPTYSTTYDDAVPMFKSNNRYRDVIASPDGNVLYVLTDTAGIVQKDDGSVTNTLENPGSLIKFTYKAK",Km,[7]; [8],18 mM
same,Vmax,[7]; [8],170 U/mg protein
"GDH-B: water-soluble pyrroloquinoline quinone (PQQ) dependent glucose dehydrogenase, wild type (protein) DVPLTPSQFAKAKSENFDKKVILSNLNKPHALLWGPDNQIWLTERATGKILRVNPESGSVKTVFQVPEIVNDADGQNGLLGFAFHPDFKNNPYIYISGTFKNPKSTDKELPNQTIIRRYTYNKSTDTLEKPVDLLAGLPSSKDHQSGRLVIGPDQKIYYTIGDQGRNQLAYLFLPNQAQHTPTQQELNGKDYHTYMGKVLRLNLDGSIPKDNPSFNGVVSHIYTLGHRNPQGLAFTPNGKLLQSEQGPNSDDEINLIVKGGNYGWPNVAGYKDDSGYAYANYSAAANKSIKDLAQNGVKVAAGVPVTKESEWTGKNFVPPLKTLYTVQDTYNYNDPTCGEMTYICWPTVAPSSAYVYKGGKKAITGWENTLLVPSLKRGVIFRIKLDPTYSTTYDDAVPMFKSNNRYRDVIASPDGNVLYVLTDTAGNVQKDDGSVTNTLENPGSLIKFTYKAK",Km,[7]; [8],25 mM
same,Vmax,[7]; [8],5200 U/mg protein
"GB-His: GDH-B fused with 6-His tag to the C-terminal (protein, left off: His6, C-terminal, kept, GDH-B fused with 6-His tag to the C-terminal) DVPLTPSQFAKAKSENFDKKVILSNLNKPHALLWGPDNQIWLTERATGKILRVNPESGSVKTVFQVPEIVNDADGQNGLLGFAFHPDFKNNPYIYISGTFKNPKSTDKELPNQTIIRRYTYNKSTDTLEKPVDLLAGLPSSKDHQSGRLVIGPDQKIYYTIGDQGRNQLAYLFLPNQAQHTPTQQELNGKDYHTYMGKVLRLNLDGSIPKDNPSFNGVVSHIYTLGHRNPQGLAFTPNGKLLQSEQGPNSDDEINLIVKGGNYGWPNVAGYKDDSGYAYANYSAAANKSIKDLAQNGVKVAAGVPVTKESEWTGKNFVPPLKTLYTVQDTYNYNDPTCGEMTYICWPTVAPSSAYVYKGGKKAITGWENTLLVPSLKRGVIFRIKLDPTYSTTYDDAVPMFKSNNRYRDVIASPDGNVLYVLTDTAGNVQKDDGSVTNTLENPGSLIKFTYKAK",Km,[7]; pH 7,24 mM
same,Vmax,[7]; pH 7,3950 U/mg protein
